{"source": "the nanobody polyreactivity screen of Harvey et al. (2022)"}
{"experiment": "yeast display, Sf9 membrane polyspecificity reagent, FACS + sequencing; frameworks hold sequencing errors", "summary_of_the_method": "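Nanobodies from a synthetic yeast display library (Saccharomyces cerevisiae BJ5465), induced 36–48 hours with galactose, were stained 1 hour at 4 °C with 10% biotinylated, detergent-solubilized Sf9 membrane reagent, enriched on streptavidin microbeads, then FACS-sorted. Anti-HA (expression) and streptavidin (reagent binding) fluorescence set low and high (top ~1%) gates. Polyreactivity labels come from the gate of origin. Genes were colony-PCR amplified, MiSeq 2 × 250 sequenced and filtered by CDR length.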"}
{"sequence": "QVQLVESGGGLVQAGGSLRLSCAASGRIFVFYVMGWYRQAPGKERELVAAITRTGGSTYYADSVKGRFTISRDNAKNTVYLQMNSLKPEDTAVYYCATRYTRLRHFDYWGQGTQVTVSS", "polyreactivity (PSR sort gate)": "low polyreactivity"}
{"sequence": "QVQLVESGGGLVQAGGSLRLSCAASGRIFVGNAMGWYRQAPGKEWALVAANSGSGDSTYYADSVKGRFTISRDNAKNTVYLQMISLKPEDTAVYYCNVDYDFVIYYYWYYPGYDYWGQGTQVTVSS", "polyreactivity (PSR sort gate)": "low polyreactivity"}
{"sequence": "QVQLVESGGGLVQAGGSLRLSCAASGRIFVGYAMVWYRQAPGKERELVAGISRSGDSTYYADSVKGRFTISRDNAKNTVYLQMNSLKPEDTAVYYCAARIIYWGYYYWGQGTQVTVSS", "polyreactivity (PSR sort gate)": "high polyreactivity"}
{"sequence": "QVQLVESGGGLVQAGGSLRLSCAASGRIFVHYVMGWYRQAPGKERELVAAISRSGGRTYYADSVKGRFTISRDNAKNTVYLQMNSLKPEDTAVYYCATDASTYKYDYWGQGTQVTVSS", "polyreactivity (PSR sort gate)": "high polyreactivity"}
{"sequence": "QVQLVESGGGLVQAGGSLRLSCAASGRIFVIYAKGWYRQAPGKERELVAVISSDGSTYYADSVKGRFTISRDNAKNTVYLQMNSLKPEDTAVYYCAADRIGRYRPYIGWVVRSYYWGQGTQVTVSS", "polyreactivity (PSR sort gate)": "low polyreactivity"}
{"sequence": "QVQLVESGGGLVQAGGSLRLSCAASGRIFVIYAMGWYRQAPGKERELVAVINDDGSTNYADSVKGRFTISRDNAKNTVYLQMNSLKPEDSAVYYCNAVYYSYRYGHDYWGQGTQVTVSS", "polyreactivity (PSR sort gate)": "low polyreactivity"}
{"sequence": "QVQLVESGGGLVQAGGSLRLSCAASGRIFVKNAMGWNRQAPGKESELVAAISASGGSTYYADSVKGRFTISRDNAKNTVDLQMNSLKPEDTAVYYCAARRRAFGSTYNYWGQGTQVTVSS", "polyreactivity (PSR sort gate)": "high polyreactivity"}
{"sequence": "QVQLVESGGGLVQAGGSLRLSCAASGRIFVKNAMGWYIQAPGKERELVAAISASGGSTYYADSVKGRFTISRDYSKNTVYLQMNSLKPEYTAVYYCARVLRRRYLSEFDYWGQGTQVTVSS", "polyreactivity (PSR sort gate)": "high polyreactivity"}
{"sequence": "QVQLVESGGGLVQAGGSLRLSCAASGRIFVKNAMGWYRQAPGKERELVATISSGGNTNYADSVKGRFTISRDNAKNTVYLQLNSLKPEDTAVYYCAAVWDLGDYELPYDYWGQGTQVTVSS", "polyreactivity (PSR sort gate)": "low polyreactivity"}
{"sequence": "QVQLVESGGGLVQAGGSLRLSCAASGRIFVKNTMGLYRQAPGKERELVAAISWYGGSTYYADSVKGRFTISRDNAMNTVYLQMNSLKPEDTAFYYCAAATWQWPWYDYWGQGTKVTVSS", "polyreactivity (PSR sort gate)": "high polyreactivity"}
{"sequence": "QVQLVESGGGLVQAGGSLRLSCAASGRIFVKYVIGWYRQAPGKERELVAAISSSGGRTYYADSVKGRFTISRDNAKNTVYLQMNSLKPEDTAVYYCAASFRRIYVSGLGGPFDYWGQGTQVNVSS", "polyreactivity (PSR sort gate)": "high polyreactivity"}
{"sequence": "QVQLVESGGGLVQAGGSLRLSCAASGRIFVNNAMGWYRQAPGKERELVATITSGGSTYYADSVKGRFTISRDNAKNTVYLQMNSLKPEDSAVYYCAARRWYVHYFAYGYWGQGTQVTVSS", "polyreactivity (PSR sort gate)": "low polyreactivity"}
{"sequence": "QVQLVESGGGLVQAGGSLRLSCAASGRIFVPNNMGWYRQAPGKERDLVAAISSGGSTYADSVKGRFTISRDNAKNTFYLQLNSLKPEDTAVYYCAVGKYGTQFTQWVRKYDYWGQGTQVTVSS", "polyreactivity (PSR sort gate)": "low polyreactivity"}
{"sequence": "QVQLVESGGGLVQAGGSLRLSCAASGRIFVQNAMGWYRQAPGKERELVAAISASGGRTSYADSVKGRFTISRDNAKNTVYLQMNSLKPEDTAVYYCAALFRVYPLTKKYGYWGQGTQVTVSS", "polyreactivity (PSR sort gate)": "high polyreactivity"}
{"sequence": "QVQLVESGGGLVQAGGSLRLSCAASGRIFVQNAMGWYRQAPGKERELVAAISISGARTYYADSVKGRFTISRDNAKNTVYLQMNSLKPEDTAVYYCNASYRDEDDYWGQGTQVTVSS", "polyreactivity (PSR sort gate)": "high polyreactivity"}
{"sequence": "QVQLVESGGGLVQAGGSLRLSCAASGRIFVQYAMGWYRQAPGKERELVAAISKSGVRTFYADSVKGRFTISRDNAKNTVYLQMNSLKPEDTAVYYCNKAYRVGRTEFNYWGQGTQVTVSS", "polyreactivity (PSR sort gate)": "high polyreactivity"}
{"sequence": "QVQLVESGGGLVQAGGSLRLSCAASGRIFVRNAMGWYRQAPGKERELVAAISRSGGSTYYADSVKGRFTISRDNAKNTVYLQMNSLKPEDTAVYYCNKGFNYGGWFKKYGYWGQGTQVTVSS", "polyreactivity (PSR sort gate)": "high polyreactivity"}
{"sequence": "QVQLVESGGGLVQAGGSLRLSCAASGRIFVRNAMGWYRQAPGKERELVAAISWRGTSTYYADSVKGRFTISRDNAKNTVYLQMNSLKPEDTAVYYCAKRISGYRGDYWGQGTQVTVSS", "polyreactivity (PSR sort gate)": "high polyreactivity"}
{"sequence": "QVQLVESGGGLVQAGGSLRLSCAASGRIFVRNAMGWYRQAPGKERELVAGISNAGRTNYADSVKGRFTISRDNAKNTVYLQMNSLKPEDTAVYYCAKRPGYDYDYWGQGTQVTVSS", "polyreactivity (PSR sort gate)": "high polyreactivity"}
{"sequence": "QVQLVESGGGLVQAGGSLRLSCAASGRIFVRNAMGWYRQAPGKEREMVAAISASGGSTYYADSVKGRFTISRDNAKNTVYLLMNSLKPEDTAVYYCNAYRAYYDLAYGYWGQGTQVTVSS", "polyreactivity (PSR sort gate)": "high polyreactivity"}
{"sequence": "QVQLVESGGGLVQAGGSLRLSCAASGRIFVRNGMGWYRQAPGKERELVAAISASGGNTYYADSVKGRFTISRDNAKNTVYLQMNSLKPEDTAVYYCATTRRVPGEYWGQGTQVTVSS", "polyreactivity (PSR sort gate)": "high polyreactivity"}
{"sequence": "QVQLVESGGGLVQAGGSLRLSCAASGRIFVTNTMGWYRQAPGKERELVAAIDNSAGSTYYADSVKGRFTISRDNAKNTVYLQMNSLIPEDTAVYYCAADYPPYYAYGYWGQGTQVTVSS", "polyreactivity (PSR sort gate)": "low polyreactivity"}
{"sequence": "QVQLVESGGGLVQAGGSLRLSCAASGRIFVVNAMGWYRQAPGKERELVAAISSSSDSTYYADSVKGRFTISRDNAKNTVYLQMNSLKPEDTAVYYRAADYHYDGYWIYDYWGLGTQVTVSS", "polyreactivity (PSR sort gate)": "high polyreactivity"}
{"sequence": "QVQLVESGGGLVQAGGSLRLSCAASGRIFVVNAMGWYRQAPGKERELVAAITRRGGSTYADSVKGRFTISRDNAKNTVYLQMNSLKPEDTAVYYCNAESYYGIFRYKYDYWGQGTQVTVSS", "polyreactivity (PSR sort gate)": "high polyreactivity"}
{"sequence": "QVQLVESGGGLVQAGGSLRLSCAASGRIFVVYAMGWYRQAPGTETELVANITISGGRTYYADSVKGRFTISRDNAKNTVYVQMNSLKPEDTAVYYCAATSGALYYGYEYWGQGTQVTVSS", "polyreactivity (PSR sort gate)": "low polyreactivity"}
{"sequence": "QVQLVESGGGLVQAGGSLRLSCAASGRIFVYKAMGSYRQAPGKERELVASITSSGGSTYYADSVKGRFTISRDNAKNTVYLQMNSLKPEDTAVYYCAADVQPDTRSTPEMDYWGQGTQVTVSS", "polyreactivity (PSR sort gate)": "low polyreactivity"}
{"sequence": "QVQLVESGGGLVQAGGSLRLSCAASGRIFVYNAMGWYRQAPGKEREFVAAISWDGASTYYADSVKGRFTISRDNAKNTVYLQMNSLKPEDTAVYYCAASYRRKLYNDYWGQGTQVTVSS", "polyreactivity (PSR sort gate)": "low polyreactivity"}
{"sequence": "QVQLVESGGGLVQAGGSLRLSCAASGRIFVYNAMGWYRQAPGKEREFVASINWSGSSTYADSVKGRFTISRDNAKNTVYLQMNSLKQEDTAVYYCAARRWRYEAYRSQYDYGYWGQGTQVTVSS", "polyreactivity (PSR sort gate)": "low polyreactivity"}
{"sequence": "QVQLVESGGGLVQAGGSLRLSCAASGRIFVYNAMGWYRQAPGKERELVAAISRSGSSTYYADSVKGRFTISRDNAKNTVYLQMNSLKPEDTAVYYCNAVLSRWTQSGKYRYRYFGFEYWGQGTQVTVSS", "polyreactivity (PSR sort gate)": "high polyreactivity"}
{"sequence": "QVQLVESGGGLVQAGGSLRLSCAASGRIFVYNAMGWYRQAPGKERELVAAISWSGGSTYYADSVKGRFTISRDNAKNTVYLQMNSLKPEDTAVYYCAAYYSARRGHYRNSYGYDYWGQGTQVTVSS", "polyreactivity (PSR sort gate)": "high polyreactivity"}
{"sequence": "QVQLVESGGGLVQAGGSLRLSCAASGRIFVYNAMGWYRQAPGKERELVAAITYSVDSTYYADSVKGRFTISRDNAKNTVYLQMNSLKPEDTAVYYCAADDFHYVIHAYYSSGVDYWGQGTQVTVSS", "polyreactivity (PSR sort gate)": "low polyreactivity"}
{"sequence": "QVQLVESGGGLVQAGGSLRLSCAASGRIFVYNAMGWYRQAPGKERELVASISSTTSTYYADSVKGRFTISRDNAKNTVYLQMNSLKPEDTAVYYCNARYQTRYGRYWYKVRGMDYWGQGTQVTVSS", "polyreactivity (PSR sort gate)": "high polyreactivity"}
{"sequence": "QVQLVESGGGLVQAGGSLRLSCAASGRIFVYNAMGWYRQAPGKERELVASISWSGDSTYADSVKGRFTISRDNAKNTVYLQMNSLKPEDTAVYYCAAYSQADYQNMDYWGQGTQVTVSS", "polyreactivity (PSR sort gate)": "low polyreactivity"}
{"sequence": "QVQLVESGGGLVQAGGSLRLSCAASGRIFVYNVMGWYRQAPGKERELVAAISWGTGSTYADSVKGRFTISRDNAKNTVYLQMNSLKPEDTAVYYCAADWLSTKNDYWGQGTQVTVSS", "polyreactivity (PSR sort gate)": "low polyreactivity"}
{"sequence": "QVQLVESGGGLVQAGGSLRLSCAASGRIFVYNVMGWYRQAPGKERELVADISVGGGSTYYADSVKGRFTISRDNAKNTVYLQMNSLKPEDTAVYYCAASYYSGQSVRDDIMYYWGQGTQVTVSS", "polyreactivity (PSR sort gate)": "low polyreactivity"}
{"sequence": "QVQLVESGGGLVQAGGSLRLSCAASGRIFVYYDMGWYRQAPGKEREVVAAISSTGGSTNYADSVKGRFTISRDNAKNTVYLQMNSLKPEDTAVYYCNAALWRIAYPYGYYQYDYWGQGTQVTVSS", "polyreactivity (PSR sort gate)": "low polyreactivity"}
{"sequence": "QVQLVESGGGLVQAGGSLRLSCAASGRIFVYYTMGWYRQAPGKERELVAAITGSGGSTYYADSVKGRFTISRDNAKNTVYLQMNSLKPEDTAVYYCAVYDSYRKFKYWGQGTQVTVSS", "polyreactivity (PSR sort gate)": "high polyreactivity"}
{"sequence": "QVQLVESGGGLVQAGGSLRLSCAASGRIFWDYGMGWYRQAPGKERELVAVITWGGGSTYYADSVKGRFTISRDNAKNTVYLQMNSLKPEDTAVYYCAKEYHYYYWGQGTQVTVSS", "polyreactivity (PSR sort gate)": "low polyreactivity"}
{"sequence": "QVQLVESGGGLVQAGGSLRLSCAASGRIFWFYAMGWYRQATGKERELVAAINTSVGRTHYADSVKGRFTISRDNAKNTVYLQMNSLKPEDTAVYYCASDVKRYGWEYGYWGQGTQVTVSS", "polyreactivity (PSR sort gate)": "low polyreactivity"}
{"sequence": "QVQLVESGGGLVQAGGSLRLSCAASGRIFWFYTMGWYRQAPGKERELVAAISTSGGSTYYADSVKGRFTISRDNAKNTVYLQMNSLKPEDTAVYYCAAQNGYYPQHDYWGQGTQVTVSS", "polyreactivity (PSR sort gate)": "high polyreactivity"}
{"sequence": "QVQLVESGGGLVQAGGSLRLSCAASGRIFWGYAMGWYRQAPGKERELVAAINRGSSTYYADSVKGRFTISRDNAKNTVYLQMNSLKPEDTAVYYCAVKGYLPYTGIFDYWGQGTQVTVSS", "polyreactivity (PSR sort gate)": "high polyreactivity"}
{"sequence": "QVQLVESGGGLVQAGGSLRLSCAASGRIFWINALGWYRQAPGKERELVAAISWRGDSTYYADSVKGRFTISRDNAKNTVYLQMNSLKPEDTAVYYCAATWYSWGSEFDYWGQGTQVTVSS", "polyreactivity (PSR sort gate)": "high polyreactivity"}
{"sequence": "QVQLVESGGGLVQAGGSLRLSCAASGRIFWRNALGWYRQAPGKERELVAAITYSGGSTYYADSVKGRFTISRDNAKNTVYVQMNSLNPEDTAVYYCNTVEGWRYYGQSLYAYYYWGQGTQVTVSS", "polyreactivity (PSR sort gate)": "high polyreactivity"}
